The record followed here is publication PMC11507749.

The target of this assay is iLID-YFP-SNAP (2×Strep-iLID-EYFP-SNAP). Nature of the assay: light-induced membrane recruitment in GUVs.

mCherry-SspB(micro): the half-time of dissociation from the membrane in the dark was determined as 61.2 s and the half-time of dissociation in the dark was 41.8 s.
